Assay: yeast display, Sf9 membrane polyspecificity reagent, FACS + sequencing; frameworks hold sequencing errors
How it was run: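 A synthetic nanobody library was expressed on Saccharomyces cerevisiae BJ5465 by galactose induction for 36–48 hours. The library was stained for 1 hour at 4 °C with 10% biotinylated, detergent-solubilized Sf9 membrane reagent and enriched with streptavidin microbeads before FACS. Low and high (top ~1%) gates were set on anti-HA fluorescence for expression and streptavidin fluorescence for reagent binding, and each polyreactivity label reflects the gate of origin.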

Row | Sequence | polyreactivity (PSR sort gate)
1 | QVQLVESGGGLVQAGGSLRLSCAASGSTFRYYAMGWYRKAPGKERELVAAITSSGGSTYYADSVKGRFTISRDNAKNTVYLQMNSLKPEDTAVYYCAVAVKNWVKLNYWGQGTQVTVSS | high polyreactivity
2 | QDQLVESGGGLVQAGGSLRLSCAASGFIFPIYAMGWYRQAPGKERELVAGISGSGTSTYYADSVKGRFTISRDNAKNTVYFLMNSLKPEDTAVYYCNILWRGAARTRWDRGYWGLGTQVTVSS | high polyreactivity
3 | QVQLVESGGGLVQAGGSLRLSCAASGRIIKFYAMGWNRQAPGKERELVAVIRSVTRTKYADSVKGRFTISRDNAKNTVYLQLNSLKPEDTAVYYCAAREVGKMDYWGQGTQVTVSS | low polyreactivity
4 | QVQIVESGGGLVQAGGSLRLSCAASGRIIRINAMGWSRQAPGKERELVAAITRGGTTYADSVKGRFTISRDNAKNTVYLQMNSLKPEDTAVYYCNARTGRSPTGFRYWGQGTQVTVSS | high polyreactivity
5 | QVQLVESGGGLVQAGGSLRLSCAASGIIFRPYAMGWYRQAPGKERELVASITLSGGSTYYADSVKGRFTISRDNAKNTVYLQMNSLKPEDTAVYYCNRYPRLRVVPSRYVKYDYWGQGTQVTVSS | low polyreactivity
6 | QVQLVESGGGLVQAGGSLRLSCAPSGSIFYLNAMGWYRQAPGKERELVAAISKRGSRTYYADSVKGRFTISRDNAKNTVYLQMNSLKPEDTAVYYCNALDTPGYNTEPARQYDHWGQGTQVTVSS | high polyreactivity
7 | QVQLVESGGGLVQAGGSLRLSCDASGSIFGINVMGWYRQAPGTERELVARINDGADTNYADSVKGRFTISRDNAKNTVYLQMNSLKPEDTAVYYCAKPYYDGRTHFDSWGQGTQVTVSS | low polyreactivity
8 | QVQLVESGGGLVQAGGSLPLSCAASGRTFRRYAMGWYRQAPGKETELVAAISWGAGSTRYADSVKGRFTISRDNAKNTVYLQLNSLKPEDTAVYYCAAENTRAYGMYYWGQGTQVTVSS | high polyreactivity
9 | QVQLVESGGGLVQAGGSLRLSCAASGIIFITYAMGWYRQAPGKERELVAVISKGGGRTYYADSVKGRFTISRDNAKNTVYLQMNSLKPEDTAVYYCAARSSSNRYVHMDYWGQGTQVTVSS | high polyreactivity
10 | QVQLVESGGGLVQAGGSLRLSCAPSGSTSFSNDMGWYRQAPGKERELVAAIRSGGSTDYADSVKGRFTISRDNAKNTVYLQMNSLKPEDTEVYYFNATQYDAVYPGYARLYDYWGQGTQVTVSS | low polyreactivity
11 | QFQLVESGGGLVQAGGSLRLSSAASGRTFLSYTMVWYRQAPGKERQFVAAITTSGGSTNYADSVKGRFTISRDNAKNTVYLQMNSLKAEDTAVYYCADEWSVYFYDPRSDYWGQGNQVTVSS | high polyreactivity
12 | QVQLVESGGGLVQAGGSLRLSCAASGSTFYTYAMGWYRQAPGKERELVAAITFSGDSKYYADSVKGRFTISRDNAKNTVYLQMNSLKPEDTAVYYCAALQKRYYRSWVGYDYWGQGTQVTVSS | high polyreactivity
13 | QVQLVESGGGLVQAGGSLRLSCAASGSICAYAMGWYRQAPGKERELVASISTSTDITYADSVKGRFTISRDNAKNTVYLQMNSLKPEDTAVYYCAATYWQWWGWYDYWGQGTQVTVSS | high polyreactivity
14 | QVQLVESGGGLVQAGGSLRLSCAASGSTFKRNAMGWYRQAPVKERELVATITRRGGSTYADSVKGRFTISRDNAKNTVYLQMNSLKAEDTAVYYCARDGFSGGMDYWGQGTQVTVSS | low polyreactivity
15 | QVQLVESGGGLVQAGGSLRLSCAASGSTFAYNDMGWYRQAPWKERDLVADIRSGGNTNYADSVKGRFTISRDNAKNTVYLQMNILKPEDTAVYYCASDGYRIDVYHPDYRYDYWGQGTQVTVSS | low polyreactivity
16 | QVQLVESGGGLVQAGGSLRLSCAPSGRILAYYAMGWYRQAPGKEREFVAAIDSGSSTNYADSVKGRFTISRDNAKNTVYLQMNSLKPEDTAVYYCAARIRWWYYYLRSQTYYYWGQGTQVTVSS | low polyreactivity
17 | QVQLVESGGGLVQAGGSLRLSCAASVRTFEGYAMGWDRQEPGKERELVAAISKSGGRTYYADSVKGRFTISRDNAKNTVYLQMNSLKPEHTAVYYCAARVSSGSNSDYWGQGTQVTVSS | high polyreactivity
18 | QVQLVESGGGLVQAGGSLRLSCAASGSTFREYTMGWYRQAPGKEWDLVAAITNSGGSTYYADSVKGRFTISRDNAKNTVYLQMNSLKPEDTAVYYCAAEVGIVDYDYWGQGNQVTVSS | low polyreactivity
19 | QVQLVESGGGLLQAGGSLRLSCAASGFIFVDNAMGWYRQAPGKERELVAAITSGASTYYADSVKGRFTISRDNAKNTVYLQMNSLKPEDTAVYYCAADYLYYYTWYNYWGQGTQVTVSS | low polyreactivity
20 | QVQLVESGGGLVQAGGSLRLSCAASGRTFYFYAMGWYRQAPGKEWELVAAISWSGGRTYYADSVKGRFTISRDNAKNTVYLQMNSLNPEDTAVYYCAAEYRWSVGYWRYGLDDYWGQGTQVTVSS | high polyreactivity

Row | Sequence | polyreactivity (PSR sort gate)
21 | QVQLVESGGGLVQAGGSLRLSCAASGITFPGNAMGWYRQAPGTERELVAVIRKSGTSTYYADSVKGRFTISRDNAKNTVYLQMNSLKPEDTAVYYCAAGGPSTLDDYWGQGTQVTVSS | low polyreactivity
22 | QVQLVESGRGLVQAGGSLRLSCAASGFTFAFYAMGWYRQAPGKERELVAAISRRGGSTTYADSVKGRFTISRDNAKNTVYLQMNSLIPEDSAVYYCNAVSTRNPGPDYYYWGQGTQVTVSS | high polyreactivity
23 | QVKLVESGGGLVQAGGSLRLICAASGNTFGPYDMGWYRQAPGKERQLVAGITSGGSTYYADSVKGSFTITRDNAKNTVYLQMNSLKPEDTAVYYCAADYYLWVYWYDYWGQGTQVTVSS | high polyreactivity
24 | QVQLVESGGGLVQAGGSLRLSCSASGITFGANTMGWYRQAPGKERELVAAITISGGITHYADSVKGRFTISRDHAKNTVYLQMNSLKPEDTAVYYCAAGAYWRLYPYRQRNGGRMYYWGQGTQVTVSS | low polyreactivity
25 | QVQLVESGGGLVQAGGSLRLSCAASGRIFRGYAMGWYRQAPGKERELVAAIDTDTGITYYADSVKGRFTISRDNAKNTVYLQMNSLKPEDTAVYYCAAETYYAVSTGYYFDYWGQGTQVTVSS | high polyreactivity
26 | QGQLVESGGGLVQAGGSLRLSCAASGFTFTRNTMGWYRQAPGKERELVAAITRGGSTNYADSVKGRFTISRDNAKNTVYLQLNSLKPEDTAVYYCNKGRNVVLVRTADDYWGQGTQVTVSS | low polyreactivity
27 | QVQLVESGGGLVQAGGSRPLSCAASGFIFDSNAMGWYRQAPGKGTDLVAAISWSGTSTFYADSVKGRFTISRDNAKNTVYLQMNSLNPEDTAVYYCAAKYGRRGFNRYGYWGQGTQVTVSS | high polyreactivity
28 | QVQIVESGAGLVQAGGSLRLSCAASGIIFPRYAMGWYRQAPGKERELVAAITIGGRTNYGDSVKGRFTISRDNGKNTFYLQMKSLKPEDTAVYYCAAQTFVPYSEYDYWGQGTQVTVSS | low polyreactivity
29 | QVQLVESGGGLVQAGGSLRLSCAASGFIFEHYAMGWYRQAPGKERELVARISWRGGSTYYGDSVKGRFTISRDNAKNTVYLQMNSLKPEDTAVYYCAKYAHGHKWYGYWGQGTQVTVSS | low polyreactivity
30 | QVQLVESGGGLVQAGCSLRLSCAASGRTFSTYAMGWYRQAPGKERELVAAITRRGGSTYYADSVKRRFTISRDNAKNTVYLQINSLKPEDTAVYYCETYADRPPRTPDISYVSNFDYWGQGTQVTVSS | low polyreactivity
31 | QVQLVESGGGLVQAGGSLRLSCSSSGYTFYGYAMGWCRQAPGKERELVADISWSGTNTNYADSVKGRFTISRDNAKNTVYLQMNSLKQDDTAVYYGAAGYYYRGFYTEDYWGQGTQVTVSS | high polyreactivity
32 | QVQIVESGGGLVQAGGSLRLSCAASGFTFWRNAMVWYRQAPGKERELVAAINWSGGSTYYADSVKGRFTISRDNAKNTVYLQMNSLKPEDTAVYYCAADLSSRGISQDDYWGQGTQVTVSS | high polyreactivity
33 | QVQLVESGGGLVQAGGSLRLSCAASGSIFLYNTMGWYRQAPGKERELVAAITSGGNTNYADSVKGRFTISRDNAKNTVYLQMNSLKPEDTAVYYCNVDLKAWLPDGGSVDYWGQGTQVTVSS | low polyreactivity
34 | QVQLVESGGGLVQAGGSLRLSCAASGLTFLRNGMGWYRQAPGKERELVASITRSGARTYYADSVKGRFTISRDNAKNTVYLQMNSLKPEDTAVSYCAARAYVSHYGVSNFGDYYWGQGTQVTVSS | high polyreactivity
35 | QVQLVESGGGLVQAGGSLRLSCAASGFIFRYYAMGWSRQAPGKERELGAAITISGGSTYYADSVKGRFTISRDNAKNTVKLQMNSLKPEDTAFYYCAADSKFWYLFHGKRYDYWGQGTQGTVSS | high polyreactivity
36 | QDQLVESGGGLVQAGGSLRLSCAASGIIFEYYAMGWYRQAPGKEREFVASITSSDGSTYYADSVKGRFTISRDNAKNTVYLQMNILKPEDTAVYYCAAAGDYVVPISSTAGFGGDYWGQGTQVTVSS | low polyreactivity
37 | QVQLVESGGGLVQAGGSLRLSCAASGRTFVTNAMGWYRQAPGKERELVAAISSSGGSTYYADSVKGRFTISRDNAKNTVFLQMNSLKPEDTAVYYCAVGGQTKGQYDYWGQGTQVTVSS | low polyreactivity
38 | QVQLVESGGGLVQAGGSLRLSCAASGRTFRTYNMGWYRQAPGKERELVAAISYSGGSTYYADSVKGRFTISRDNAKNTVYLQMNSLKPEDNAVYYCNARRYFWGFDYWGQGTQVNVSS | high polyreactivity
39 | QVQLVESGGGLVQAGGSLRLSCAASGRTFVRNAMGWSRQAPGKERELDAAITSGGSTYYADSVKGRFTISRDNAKNTVYLQMNSLKPEDTAVYYCAAVDRRYGPTYKMGYWGQGTQVTVSS | high polyreactivity
40 | QVQLVESGGGLVQAGGSLRLSCAASGRIFTSYAMGWYRQAPGKERELVATITGSTASTYYADSVKGRFTISRDNAKNTVYLQMNSLKPEDTAVYYCAARSYSTYFRYYYWGQGTQVTVSS | high polyreactivity

Source: the nanobody polyreactivity screen of Harvey et al. (2022)
